T1: c-JUN mutant 14 DNA-binding domain peptide (K277I, C278D) (Homo sapiens, UniProt P05412 SEQ:1-132)
T1 chain: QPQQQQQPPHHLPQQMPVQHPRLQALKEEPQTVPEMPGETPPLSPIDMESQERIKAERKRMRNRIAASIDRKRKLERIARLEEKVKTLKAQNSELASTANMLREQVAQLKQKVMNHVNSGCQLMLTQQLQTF

B1: JD13F/14F (dsDNA)
DNA 1: CCGGCCTAAATAGGGCTTTT
DNA 2: AAAAGCCCTATTTAGGCCGG
B2: JD1F/2F (dsDNA)
DNA 1: GTGTCTGACTCATGCTT
DNA 2: AAGCATGAGTCAGACAC
B3: JD3F/4F (dsDNA)
DNA 1: GTGTCTTACTCATGCTT
DNA 2: AAGCATGAGTAAGACAC

What was measured:
Sp1 full length = Sp1 full length (UniProt P08047 P08047:2-785); test: fluorescence quenching; 200 ng Sp1, no decrease; details: tags: Promega; label: 5'-fluorescein both strands
Sp1 full length, sequence (P08047 2-785, one chain of several): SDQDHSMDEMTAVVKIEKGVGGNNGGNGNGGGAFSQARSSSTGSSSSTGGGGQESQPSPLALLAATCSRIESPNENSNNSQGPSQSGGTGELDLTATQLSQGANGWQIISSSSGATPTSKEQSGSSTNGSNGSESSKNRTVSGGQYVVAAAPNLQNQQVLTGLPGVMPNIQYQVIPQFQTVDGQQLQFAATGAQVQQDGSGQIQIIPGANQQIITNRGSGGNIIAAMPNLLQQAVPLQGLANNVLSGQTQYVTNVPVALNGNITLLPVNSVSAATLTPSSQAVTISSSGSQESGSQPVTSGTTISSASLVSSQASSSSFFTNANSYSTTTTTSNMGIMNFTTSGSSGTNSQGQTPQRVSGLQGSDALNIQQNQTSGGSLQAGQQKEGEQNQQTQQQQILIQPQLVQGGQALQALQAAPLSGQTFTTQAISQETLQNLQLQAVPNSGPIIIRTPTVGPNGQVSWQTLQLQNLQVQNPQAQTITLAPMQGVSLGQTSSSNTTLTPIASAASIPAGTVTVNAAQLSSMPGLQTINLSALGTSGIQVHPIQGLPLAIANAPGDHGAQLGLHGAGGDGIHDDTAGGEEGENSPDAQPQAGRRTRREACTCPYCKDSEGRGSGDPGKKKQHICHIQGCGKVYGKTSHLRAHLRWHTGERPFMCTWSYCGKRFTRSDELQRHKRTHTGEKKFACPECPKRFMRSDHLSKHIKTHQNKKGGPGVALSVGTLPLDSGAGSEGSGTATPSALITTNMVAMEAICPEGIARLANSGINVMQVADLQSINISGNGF
Protocol: The Sp1:DNA binding reaction mixture (30 µl) contained the following: 25 mM HEPES, pH 7.8, 100mM KCl, 100 µM ZnSO_4, 1 mM DTT, 20% (v/v) glycerol, 0.05 µg/µl BSA, 0–200 ng pure Sp1 protein (Promega) and 0.1 pmole 5'-fluorescein labeled dsDNA oligonucleotide. The reaction mixes were incubated at 0° C. for […], placed into a quartz cuvette, irradiated with an argon ion laser beam having a wavelength of 488 nm and monitored for fluorescent emission.
When 200 ng Sp1 was reacted with 0.1 pmole mutant JD13F/14F, no decrease in fluorescent intensity was observed (FIG. 4B), indicating non-binding of protein to the mutated DNA sequence. These studies confirmed the specificity of the laser detection assay for a completely different class of DNA-binding proteins.

[1] = molecular target: T1, c-JUN mutant 14 DNA-binding domain …; test: fluorescence quenching; no decrease at 200-400 ng; details: chain copies: 2 (inferred); label: 5'-fluorescein both strands
Protocol: (§1) The c-JUN :DNA binding reaction mixture (30 μl) contained the following: 9.25 mM HEPES, pH 7.9, 2.23 mM MgCl_2, 0.03 mM EDTA, 50 mM NaCl, 5.0 mM DTT, 3.75% (v/v) glycerol, 0.15 μg/μl bovine serum albumin (BSA), 0–2.0 μg pure c-JUN protein (Promega, Madison, Wis.) or 0–400 ng pure c-JUN peptide, and 0.075 pmole 5'-fluorescein labeled dsDNA oligonucleotide. When full-length c-JUN was used, 3 ng/μl poly(dI)-poly(dC) was included in the reaction mix, and added before the addition of protein and fluorescein-labeled DNA. The examples in FIGS. 1B and 1D contained 50 mM KCl in lieu of 50 mM NaCl. Wild-type and mutant c-JUN DNA-binding domain peptides were generously supplied by Dr. Dirk Bohmann (European Molecular Biology Laboratory, Heidelberg, Germany). The reaction mixtures were incubated at 21° C. for 30 minutes, placed into a quartz cuvette, irradiated with an argon ion laser beam having a wavelength of 488 nm and monitored for fluorescent emission.
The specificity of the laser binding assay was further tested by reacting a mutant c-JUN DNA-binding domain peptide with wild-type or mutant DNA. Specific mutations in the basic domain of c-JUN abolish DNA binding without affecting dimerization, whereas specific mutations in the leucine zipper prevent both dimerization and DNA binding.

c-JUN full length = c-JUN full length (Homo sapiens, UniProt P05412 P05412:1-331); test: fluorescence quenching; no decrease in NaCl or KCl, 21 C; details: tags: Promega; 340 aa; chain copies: 2 (stated homodimer); label: 5'-fluorescein both strands
Protocol: as §1
These mutant DNA binding studies confirm the specificity of both the c-JUN:wild-type DNA binding conditions and the laser detection method.

[2] = molecular target: c-JUN DNA-binding domain peptide (wild-type) (Homo sapiens, UniProt P05412 SEQ:1-132); test: fluorescence quenching; minor increase in intensity at 20-200 ng; details: chain copies: 2 (inferred); label: 5'-fluorescein both strands
Protocol: as §1

| Binder | binding result (Sp1 full length) | binding result [1] | binding result (c-JUN full length) | binding result [2] |
| --- | --- | --- | --- | --- |
| B1 | no binding | – | – | – |
| B2 | – | no binding | – | – |
| B3 | – | no binding | no binding | no binding |

— patent US6294333, “Fluorescent intensity assay for protein or peptide binding to nucleic acids” (Ingeneus Corp.)
